Data: US20240343803A1 (SHANDONG SIMCERE BIOPHARMACEUTICAL, published 2024)

Columns and labels:
[1] = molecular target: T1, Fusion protein of extracellular domain of human TIGIT and mouse IgG2a Fc fragment (human TIGIT ECD-mFc) (human); test: FACS; blocking of TIGIT ECD-mFc binding to CHO-K1 CD112 cells
T1 construct: The entry includes the signal peptide (limits not recoverable) and the mouse IgG2a Fc
T1 chain: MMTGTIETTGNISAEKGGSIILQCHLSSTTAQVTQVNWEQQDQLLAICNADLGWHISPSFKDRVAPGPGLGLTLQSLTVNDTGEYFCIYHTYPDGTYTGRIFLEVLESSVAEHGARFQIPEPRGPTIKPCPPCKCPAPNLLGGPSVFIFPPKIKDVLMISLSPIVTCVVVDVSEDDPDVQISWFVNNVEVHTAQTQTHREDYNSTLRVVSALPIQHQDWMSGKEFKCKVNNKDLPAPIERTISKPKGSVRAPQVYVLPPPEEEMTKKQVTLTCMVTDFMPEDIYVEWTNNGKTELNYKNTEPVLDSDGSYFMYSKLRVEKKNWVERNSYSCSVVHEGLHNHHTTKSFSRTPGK
Procedure: The collected CHO-K1 CD112 cells were washed once with PBS (Hyclone, CAT #SH30256) and resuspended to 2×10⁵/40 μL with 1% BSA-PBS. The anti-TIGIT humanized antibodies were diluted to 600 nM with 1% BSA-PBS (diluted by 2.5-fold serial dilution for 12 concentration points). The TIGIT ECD-mFc was diluted with 1% BSA-PBS to 6 μg/mL. The 40 μL cells were then mixed with 40 μL diluted antibodies and 40 μL diluted TIGIT ECD-mFc, and then incubated at 4° C. for 60 minutes. […] The cell samples were washed twice with PBS, resuspended to 100 μL/well with 1% BSA-PBS and then analyzed by flow cytometry (BD, Canto II). […] (f) The binding activity of anti-TIGIT humanized antibodies to human PBMCs detected by FACS.

[2] = molecular target: T2, Full-length human TIGIT on CHO-K1 cells (CHO-K1 human TIGIT) (human, UniProt Q495A1 22-244); test: FACS; CHO-K1 human TIGIT low expression strain
T2 construct: NCBI XP_024309156.1; the entry includes the signal peptide (limits not recoverable); The strain (high, medium, low) is named under assay; also called high expression strain 1D2; medium expression strain 2D10
T2 sequence: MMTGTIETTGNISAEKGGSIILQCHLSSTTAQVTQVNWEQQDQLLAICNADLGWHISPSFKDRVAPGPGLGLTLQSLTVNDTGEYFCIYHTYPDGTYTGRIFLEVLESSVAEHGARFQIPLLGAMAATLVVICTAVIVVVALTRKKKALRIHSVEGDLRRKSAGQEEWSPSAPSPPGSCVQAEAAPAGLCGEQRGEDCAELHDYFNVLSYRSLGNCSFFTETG
Method in brief: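 Binding curves from flow cytometry on CHO-K1 cells bearing full-length human or cynomolgus monkey TIGIT yielded the EC50. A 3-fold, 12-point antibody series starting at 80 nM before the 1:1 mix with cells in 1% BSA-PBS was incubated at 4° C for 60 min.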

[3] = molecular target: T3, Fusion protein of extracellular domain of human TIGIT and His-tag (human TIGIT ECD-his) (human); test: BIAcore
T3 chain: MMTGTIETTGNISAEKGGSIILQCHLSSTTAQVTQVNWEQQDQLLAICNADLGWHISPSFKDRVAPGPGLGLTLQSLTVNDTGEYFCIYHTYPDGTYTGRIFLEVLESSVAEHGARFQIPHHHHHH

[4] = molecular target: T1, Fusion protein of extracellular domain …; test: ELISA, human TIGIT ECD-mFc
Method in brief: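 Antibodies diluted to 13 nM in 1% BSA, then 3-fold serial dilution for 12 concentrations, incubated with milk-blocked plates at 37° C for 1.5-2 h. Bound antibody detected with HRP-labelled secondary antibody (1:5000, 37° C, 1 h) and TMB, stopped with 1M HCl; OD450 nm read.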

[5] = molecular target: T4, TIGIT on human PBMCs stimulated by SEA (human, UniProt Q495A1 22-244); test: FACS; binding to SEA-stimulated human PBMC
T4 construct: whole, on cells
T4 sequence (looked up): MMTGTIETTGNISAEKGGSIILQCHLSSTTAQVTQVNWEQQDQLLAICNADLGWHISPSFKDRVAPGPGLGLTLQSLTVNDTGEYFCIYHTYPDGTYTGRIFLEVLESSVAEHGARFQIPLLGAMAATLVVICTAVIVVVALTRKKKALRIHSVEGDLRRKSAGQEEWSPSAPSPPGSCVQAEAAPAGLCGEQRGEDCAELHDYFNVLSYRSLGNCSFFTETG
Procedure: The fresh human PBMCs (AllCells, PB004-C) were adjusted to a density of 5×10⁵/mL, added with SEA (Toxin Technology, Inc., CAT: AT101) to 100 ng/ml, and cultured at 37° C. with 5% CO₂ for 3 days. The cells were collected 3 days later, washed once with PBS (Hyclone, CAT #SH30256), added with Fc Block (BD, 564220) and then incubated at 4° C. for 10 minutes. After washing twice with PBS, the PBMCs were resuspended to 2×10⁵/50 μL with 1% BSA-PBS. The humanized antibodies were diluted to 80 nM with 1% BSA-PBS (diluted by 3-fold serial dilution for 12 concentration points). The 50 μL cells were then mixed with 50 μL diluted antibodies, and then incubated at 4° C. for 60 minutes. […] After washing twice with PBS, the cell samples were resuspended with 1% BSA-PBS, 100 μL/well and then analyzed by flow cytometry (BD, Canto II).

B1: TIGIT-002-H4L3 (antibody, V domains shown)
VH: EVQLQESGPGLVKPSETLSLTCAVSGYSITSDSWNWIRQPPGKKLEYIGYISYSGNTYYNPSLKSRVTISRDTSKNQFSLKLSSVTAADTAVYYCARLDFSNYGGAVDYWGQGTTVTVSS
VL: DIVMTQSPDSLAVSLGERATINCKASQNVRTAVAWYQQKPGQSPKLMIYSASYRYTGVPDRFSGSGSGTDFTLTISSLQAEDVAVYYCQQYYTTPWTFGGGTKVEIK
notes: Humanized anti-TIGIT antibody
Binder B1 has an IC50 [1] of 3.49 nM, an EC50 [2] of 0.17 nM and a Kd [3] of 0.0531 nM. For the same binder, the koff [3] was 0.0003 s⁻¹, the kon [3] was 5.65e+06 M⁻¹ s⁻¹ and the EC50 [4] was 0.0138 nM. It also gave an EC50 [5] of 0.0436 nM.

B2: TIGIT-005-H2L1d (antibody, V domains shown)
VH: EVQLVQSGAEVKKPGASVKVSCKASGYAFTNYLIEWVRQAPGQRLEWMGVINPGSGGTNYKEKFKGRVTITADKSSSTAYMELSSLRSEDTAVYYCARGEYFFFDYWGQGTTVTVSS
VL: DIVMTQSPDSLAVSLGERATINCKASQHVSNAVAWYQHKPGQSPKLLIYSASYRYTGVPDRFSGSGSGTDFTLTISSLQAEDVAVYYCQQHYNTPHTFGGGTKVEIK
notes: Humanized anti-TIGIT antibody with NG-site mutation in VL
For B2, the IC50 [1] was 3.49 nM, the EC50 [2] was 0.186 nM and the Kd [3] was 0.0896 nM. The koff [3] was 0.000361 s⁻¹, the kon [3] was 4.03e+06 M⁻¹ s⁻¹ and the EC50 [4] was 0.0291 nM. It also gave an EC50 [5] of 0.0602 nM.

B3: TIGIT-006-H5L3 (antibody, V domains shown)
VH: EVQLQESGPGLVKPSETLSLTCAVSGYSMTSDYWNWIRQPPGKKLEYIGYISYSGRTYYNPSLKSRVTISRDTSKNQFSLKLSSVTAADTAVYYCARGDYSNYGGAMYDWGQGTTVTVSS
VL: DIVMTQSPDSLAVSLGERATINCRASQGVSTTIAWYQQKPGQSPKLLIYSASYRYTGVPRFSGSGSGTDFTLTISSLQAEDVAVYYCQQYYSSPFTFGGGTKVEIK
notes: Humanized anti-TIGIT antibody
Work on B3 yielded an IC50 [1] of 4.65 nM, an EC50 [2] of 0.268 nM and a Kd [3] of 0.0639 nM. It also gave a koff [3] of 0.00016 s⁻¹, a kon [3] of 2.51e+06 M⁻¹ s⁻¹ and an EC50 [4] of 0.0092 nM. It also gave an EC50 [5] of 0.0916 nM.

B4: TIGIT-070-H1L1 (antibody, V domains shown)
VH: EVQLVQSGAEVKKPGASVKVSCKASGYTFTNYYMHWVRQAPGQRLEWMGRIDPDSGGSKYNEKFKSRVTITVDKSASTAYMELSSLRSEDTAVYYCAREGHYGFYSDYWGQGTTVTVSS
VL: DIQMTQSPSSLSASVGDRVTITCRVSENIYSYLAWYQQKPGKSPKLLIYNAKTLAEGVPSRFSGSGSGTDFTLTISSLQPEDFATYYCQHHYGNPLTFGPGTKVDIK
notes: Humanized anti-TIGIT antibody
B4 was tested, and the IC50 [1] was 4.3 nM, the EC50 [2] was 0.305 nM and the Kd [3] was 0.0583 nM. For the same binder, the koff [3] was 0.000116 s⁻¹, the kon [3] was 1.98e+06 M⁻¹ s⁻¹ and the EC50 [4] was 0.0149 nM. For the same binder, the EC50 [5] was 0.121 nM.
